In patent KR20220134462A (dated 2022):

T1: MCF-7 세포주의 세포막에 발현된 B7-H3 (UniProt Q5ZPR3 29-534)
T1 construct: whole, on cells; Endogenous B7-H3 of the MCF-7 cell line; also called MCF-7 cell
T1 sequence (looked up): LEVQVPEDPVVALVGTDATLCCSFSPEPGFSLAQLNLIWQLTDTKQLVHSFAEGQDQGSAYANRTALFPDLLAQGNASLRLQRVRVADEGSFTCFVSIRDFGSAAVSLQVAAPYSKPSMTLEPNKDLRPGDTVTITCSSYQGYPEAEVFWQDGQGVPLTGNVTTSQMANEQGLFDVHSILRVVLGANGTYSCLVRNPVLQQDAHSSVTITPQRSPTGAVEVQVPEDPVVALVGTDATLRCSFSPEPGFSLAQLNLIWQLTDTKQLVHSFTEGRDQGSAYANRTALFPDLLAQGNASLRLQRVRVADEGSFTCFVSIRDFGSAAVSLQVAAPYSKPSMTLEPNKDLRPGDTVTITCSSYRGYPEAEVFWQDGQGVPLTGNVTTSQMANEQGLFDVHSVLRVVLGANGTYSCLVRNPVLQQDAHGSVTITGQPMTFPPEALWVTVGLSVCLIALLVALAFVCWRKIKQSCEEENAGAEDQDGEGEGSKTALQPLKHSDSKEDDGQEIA


How the values were obtained:
RKO/B7H3 세포주에 과발현된 B7-H3 = RKO/B7H3 세포주에 과발현된 B7-H3 (UniProt Q5ZPR3); assay: cell ELISA on fixed RKO/B7H3 cells (표 3)
[1] = target: T1, MCF-7 세포주의 세포막에 발현된 B7-H3; assay: cell ELISA on fixed MCF-7 cells (표 2)

| Binder | EC50 (RKO/B7H3 세포주에 과발현된 B7-H3) | EC50 [1] |
| --- | --- | --- |
| #4 항체 (B7-H3 항체) (antibody, V domains shown) VH: EVQLLESGGGLVQPGGSLRLSCAASGFTFSSYGMHWVRQAPGKGLEWVSAISGSGTSIYYANSVKSRFTISRDNSKNTLYLQMNSLRAEDTAVYYCARGAGWFDYWGQGTLVTVSS VL: QSVLTQPPSASGTPGQRVTISCSGSTSNIGSNTVNWYQQLPGTAPKLLIYGKNIRPNGVPDRFSGSKSGTSASLAISGLHSEDEADYYCQSYDSSLSGWVFGGGTKLTVL | 0.042 nM | 0.502 nM |
| #6 항체 (B7-H3 항체) (antibody, V domains shown) VH: EVQLLESGGGLVQPGGSLRLSCAASGFTFSTYAISWVRQAPGKGLEWVSSIYYSGYTHYNPSLESRFTISRDNSKNTLYLQMNSLRAEDTAVYYCARGYSGWMDVWGQGTLVTVSS VL: QSVLTQPPSASGTPGQRVTISCGGNNIGSKSVHWYQQLPGTAPKLLIYDNNKRPSGVPNRFSGSKSGTSASLAISGLRSEDEADYYCAAWDDSLNVPVFGGGTKLTVL | 0.065 nM | 0.234 nM |
| #1 항체 (B7-H3 항체) (antibody, V domains shown) VH: EVQLLESGGGLVQPGGSLRLSCAASGFTFSSYAMSWVRQAPGKGLEWVSTITGSGGSTYYADSVKGRFTISRDNSKNTLYLQMNSLRAEDTAVYYCARYKSGAFDIWGQGTLVTVSS VL: EIVLTQSPGTLSLSPGERATLSCRASQGIGNYLGWYQQKPGQAPRLLIYTASSLQSGIPDRFSGSGSGTDFTLTISRLEPEDFAVYYCQQGYSTPSWTFGQGTKVEIK | 0.015 nM | 0.605 nM |
| #2 항체 (B7-H3 항체) (antibody, V domains shown) VH: EVQLLESGGGLVQPGGSLRLSCAASGFTFSAYYMIWVRQAPGKGLEWVSITNPSGGVTSYAQKFQGRFTISRDNSKNTLYLQMNSLRAEDTAVYYCARVGGRGFDIWGQGTLVTVSS VL: EIVLTQSPGTLSLSPGERATLSCHASQGISNYVAWYQQKPGQAPRLLIYDASNRATGIPDRFSGSGSGTDFTLTISHLEPEDFAVYYCQQSYSTLLTFGQGTKVEIK | 0.036 nM | 0.061 nM |
| #3 항체 (B7-H3 항체) (antibody, V domains shown) VH: EVQLLESGGGLVQPGGSLRLSCAASGFTFSTYYMTWVRQAPGKGLEWVSIINPRGGSTSYAEKFQGRFTISRDNSKNTLYLQMNSLRAEDTAVYYCARWNLGMDVWGQGTLVTVSS VL: EIVLTQSPGTLSLSPGERATLSCRVSQSISSYLNWYQQKPGQAPRLLIYDASHRATGIPDRFSGSGSGTDFTLTISRLEPEDFAVYYCQQYYAPSVTFGQGTKVEIK | 0.065 nM | 0.197 nM |
| #5 항체 (B7-H3 항체) (antibody, V domains shown) VH: EVQLLESGGGLVQPGGSLRLSCAASGFTFSTYAMSWVRQAPGKGLEWVSAISGSGGSTLYADSVKGRFTISRDNSKNTLYLQMNSLRAEDTAVYYCARGGSATWAFDLWGQGTLVTVSS VL: QSVLTQPPSASGTPGQRVTISCSGSSSNIGSNYVYWYQQLPGTAPKLLIYRNNQRPSGVPDRFSGSKSGTSASLAISGLRSEDEADYYCGTWDSSLSGVVFGGGTKLTVL | 0.091 nM | 1.74 nM |

Results, then the binder that gave them:

| EC50 (RKO/B7H3 세포주에 과발현된 B7-H3) | EC50 [1] | Binder |
| --- | --- | --- |
| 0.05 nM | 0.322 nM | #9 항체 (B7-H3 항체) (antibody, V domains shown) VH: EVQLLESGGGLVQPGGSLRLSCAASGFTFSSYAMNWVRQAPGKGLEWVSTISGSGGQTYYADSVKGRFTISRDNSKNTLYLQMNSLRAEDTAVYYCARWRSIWAFDYWGQGTLVTVSS VL: QSVLTQPPSASGTPGQRVTISCSDNNIGSKSVHWYQQLPGTAPKLLIYDNNKRPSGVPDRFSGSKSGTSASLAISGLRSEDEADYYCGTWDDSLSGPVFGGGTKLTVL |
| 0.187 nM | 1.01 nM | #7 항체 (B7-H3 항체) (antibody, V domains shown) VH: EVQLLESGGGLVQPGGSLRLSCAASGFTFSNFWIGWVRQAPGKGLEWVSWINPPGSITSYADSVKGRFTISRDNSKDTLYLQMNSLRAEDTAVYYCAREVGDVLDYWGQGTLVTVSS VL: QSVLTQPPSASGTPGQRVTISCTGTSSDIGRYNYVSWYQQLPGTAPKLLIYRNTQRPSGVPDRFSGSKSGTSASLAISGLRSEDEADYYCGTWDSSLNAYVFGGGTKLTVL |
| 0.06 nM | 0.159 nM | #8 항체 (B7-H3 항체) (antibody, V domains shown) VH: EVQLLESGGGLVQPGSSLRLSCAASGFTFSSYWISWVRQAPGKGLEWVSEISPSGNTNYNPSLKSRFTISRDNSKNTLYLQMNSLRAEDTAVYYCAREVGDLLDYWGQGTLVTVSS VL: QSVLTQPPSASGTPGQRVTISCSGSNIGNNYVSWYQQLPGTAPKLLIYQDSKRPSGVPDRFSGSKSGTSASLAISGLRSEDEADYYCLVWDRSSDHFVFGGGTKLTVL |
